Results on five molecules are retold here after US20250101120A1 (BEIJING SOLOBIO GENETECHNOLOGY, published 2025).

Experiment [1] has as its target T1, hFc-hFasL (fusion protein of human Fc fragment and human FasL extracellular region) (human, UniProt P48023 134-281).
T1 sequence: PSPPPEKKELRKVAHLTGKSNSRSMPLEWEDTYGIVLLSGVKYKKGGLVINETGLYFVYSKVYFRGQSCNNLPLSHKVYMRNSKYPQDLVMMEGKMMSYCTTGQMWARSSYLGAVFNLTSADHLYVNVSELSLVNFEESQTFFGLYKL
Nature of the experiment: cell-based or functional assay.

Experiment [2] has as its target T1, hFc-hFasL (fusion protein of human Fc …). Nature of the experiment: cell-based or functional assay. The source holds these as a separate data set.
Experiment [3] has the same target. Nature of the experiment: ELISA, hFc-hFasL coated, antibody titrated, anti-human kappa-HRP. (In general: ELISA stands for enzyme-linked immunosorbent assay.)
Experiment [4] shares this target. Put plainly: cell-based or functional assay. This is another data set of the same source.

B1: FL-M05 (antibody, V domains shown)
VH: EVQLQQSGAELVRPGVSVKISCKGSGYTFTDYTMHWVKQSHAKSLEWIGVISTYQGDARYNQKFKGKATMTVDKSSSTAYMELARLTSEDSAIYYCARFPDWDYAMDYWGQGTSVTVSS
VL: DIVLTQSPASLAVSLGQRATISCKASQSVDYDGDSYMNWYQQKPGQPPKLLIYAASNLESGIPARFSGSGSGTDFTLNIHPVEEEDAATYYCQHSRELPYTFGGGTKLEIK
notes: Chimeric full-length antibody, tested as human IgG4 / human kappa
B1: the “IC50(nM), FasL antigen-induced apoptosis of HepG2 cells (CellTiter-Glo ATP)” value (from here on “IC50(nM) … of HepG2 cells (CellTiter-Glo ATP)”) in experiment [1] was 0.03 nM. Moreover, the “IC50(nM), FasL antigen-induced apoptosis of Jurkat cells (CellTiter-Glo ATP)” value (“IC50(nM) … of Jurkat cells (CellTiter-Glo ATP)” below) in experiment [2] stood at 0.109 nM. In addition, the EC50 (in general, the concentration that produces a half-maximal response) in experiment [3] was determined as 0.186 nM. Further, the “EC50(nM), FasL antigen-induced NF-κB signaling pathway activation (SEAP, HepG2-Dual)” value (“EC50(nM) … (SEAP, HepG2-Dual)” below) in experiment [4] was determined as 1.13 nM.

B2: FL-M89 (antibody, V domains shown)
VH: EVQLQQSGAELVRPGVSVKISCKGSGYTFTDYTIHWVKQSHAKSLEWIGVISTYQGDASYNQKFKGKATMTVDKSSSTAYMELARLTSEDSAIYYCARFPDWDYAMDYWGQGTSVTVSS
VL: DIVMTQSPASLAVSLGQRATISCKASQSVDYDGDSYMNWYQQKPGQPPKLLIYAASNLESGIPARFSGSGSGTDFTLNIHPVEEEDAATYYCQQSRELPYTFGGGTKLEIK
notes: as for B1
As to B2, the “IC50(nM) … of HepG2 cells (CellTiter-Glo ATP)” value in experiment [1] was determined as 0.021 nM. Also, the “IC50(nM) … of Jurkat cells (CellTiter-Glo ATP)” value in experiment [2] is 0.023 nM. Also, in experiment [3], the EC50 was determined as 0.441 nM. Besides, the “EC50(nM) … (SEAP, HepG2-Dual)” value in experiment [4] worked out at 1.33 nM.

B3: FL-M08 (antibody, V domains shown)
VH: QIQLLQSGAELVRPGVSVKISCKGSGYTFTDYAMHWVKQSHAKSLEWIGVISTYQGDANYNQKFKGKATMTVDKSSSTAYMELARLTSEDSAIYYCARFPDWDYAMDYWGQGTSVTVSS
VL: EIVLTQSPASLAVSLGQRATISCKASQSVDYDGDSYMNWYQQKPGQPPKLLIYAASNLESGIPARFSGSGSGTDFTLNIHPVEEEDAATYYCQHSRELPYTFGGGTKLEIK
notes: as for B1
For the molecule B3, the “IC50(nM) … of HepG2 cells (CellTiter-Glo ATP)” value in experiment [1] stood at 0.016 nM. In addition, the “IC50(nM) … of Jurkat cells (CellTiter-Glo ATP)” value in experiment [2] worked out at 0.035 nM. In addition, in experiment [3], a half-maximal effect (EC50) was put at 0.157 nM. The “EC50(nM) … (SEAP, HepG2-Dual)” value in experiment [4] is 0.704 nM.

B4: FL-M56 (antibody, V domains shown)
VH: EVQLQQSGPELVKPGASVKLSCKASGYTFTRFDISWVRQRPEQGLEWIGWIFPGDGSTQYNENFKGKATLTTDKSSGTAYMQLNRLTSEDSAVYFCARSLISTAMFDHWGQGTTLTVSS
VL: DIVLTQSPASLAVSLGQRATISCRASKSVSTSDFSYIHWYQQKPGLPPKLLIFLASHLESGVPARFSGSGSGTDFTLNIHPVEEEDAATYYCQHSRELPRTFGGGTKLEIK
notes: as for B1
As to B4, the “IC50(nM) … of HepG2 cells (CellTiter-Glo ATP)” value in experiment [1] stood at 0.02 nM. Further, the “IC50(nM) … of Jurkat cells (CellTiter-Glo ATP)” value in experiment [2] stood at 0.02 nM. Further, the EC50 in experiment [3] is 0.661 nM. Also, the “EC50(nM) … (SEAP, HepG2-Dual)” value in experiment [4] was 2.73 nM.

B5: FL-M78 (antibody, V domains shown)
VH: DVQLQESGGGLVQPGGSRKLSCAASGFTFSSYDMSWVRQTPEKRLEWVAFISSGGGSTYYPDTVKGRFTISRDNAKNTLYLQMSSLKSEDSAMYYCGRHYDNYLYAMDYWGQGTSVTVSS
VL: DIVMTQSPASQSASLGESVTITCLASQTIGTWLAWYQQKPGKSPQLLIYAATSLADGVPSRFSGSGSGTKFSFKISSLQAEDFVSYYCQQLYSTPFTFGGGTKLEIK
notes: as for B1
For the molecule B5, the “IC50(nM) … of HepG2 cells (CellTiter-Glo ATP)” value in experiment [1] worked out at 0.016 nM. For the same molecule, the “IC50(nM) … of Jurkat cells (CellTiter-Glo ATP)” value in experiment [2] turned out to be 0.023 nM. The molecule also came in with an EC50 in experiment [3] of 0.811 nM. Moreover, the “EC50(nM) … (SEAP, HepG2-Dual)” value in experiment [4] was 3.01 nM.
